From PMC8759595

Tests used:
[1] = target: endogenous VAPB (COS-7 cells); assay: co-immunoprecipitation (anti-FLAG) with quantified immunoblot; settings: COS-7 cell lysate; n = 5; parent: est. 1.0; read off a plot
[2] = target: endogenous VAPB (COS-7 cells); assay: co-immunoprecipitation (Myc-TRAP) with quantified immunoblot; settings: read off a plot; for ratio to parent: COS-7 cell lysate, at least three independent IPs, parent: est. 1.0; for other: remaining VAPB binding (% of untreated) (% of untreated): COS-7 cell lysate treated with λ-phosphatase before IP, relative to phosphatase-inhibitor sample

Row | Substance | ratio to parent [2] | also measured
1 | FLAG-ACBD4 (from UniProt Q8NC06) S166A; S169A; S171A | – | ratio to parent [1]: 1.7
2 | FLAG-ACBD4 (from UniProt Q8NC06) S166E; S169E; S171E | – | ratio to parent [1]: 4.4
3 | Myc-ACBD5 (from UniProt Q5T8D3-2) S259E | – | other: remaining VAPB binding (% of untreated) (% of untreated) ([2]; parent: est. 4.5): 7.5
4 | Myc-ACBD5 (from UniProt Q5T8D3-2) S259E; S261E; S263E | – | other: remaining VAPB binding (% of untreated) (% of untreated) ([2]; parent: est. 0.5): 22
5 | Myc-ACBD5 (from UniProt Q5T8D3-2) S261A | 0.35 | –
6 | Myc-ACBD5 (from UniProt Q5T8D3-2) S261A; S263A | 0.22 | –
7 | Myc-ACBD5 (from UniProt Q5T8D3-2) S261E | – | other: remaining VAPB binding (% of untreated) (% of untreated) ([2]; parent: est. 4.5): 21
8 | Myc-ACBD5 (from UniProt Q5T8D3-2) S263E | – | other: remaining VAPB binding (% of untreated) (% of untreated) ([2]; parent: est. 4.5): 8
9 | Myc-ACBD5 (from UniProt Q5T8D3-2) T258A; S259A | 0.53 | –

Now from value to substance, other results behind:

Row | ratio to parent [2] | Substance | also measured
10 | 0.81 | Myc-ACBD5 (from UniProt Q5T8D3-2) S259A | –
11 | 0.3 | Myc-ACBD5 (from UniProt Q5T8D3-2) S259A; S261A | –
12 | 0.15 | Myc-ACBD5 (from UniProt Q5T8D3-2) S259A; S261A; S263A | –
13 | 0.42 | Myc-ACBD5 (from UniProt Q5T8D3-2) S263A | –
